{"source": "paper PMC12583694", "about": "“RNF114 and RNF166 exemplify reader-writer E3 ligases that extend K11 polyubiquitin onto sites of MARUbylation” (The EMBO Journal, 2025)", "binders": {"B1": {"name": "RNF114 (wild type, full-length) (enzyme, human, UniProt Q9Y508 1-228, looked up)", "chain": "MAAQQRDCGGAAQLAGPAAEADPLGRFTCPVCLEVYEKPVQVPCGHVFCSACLQECLKPKKPVCGVCRSALAPGVRAVELERQIESTETSCHGCRKNFFLSKIRSHVATCSKYQNYIMEGVKATIKDASLQPRNVPNRYTFPCPYCPEKNFDQEGLVEHCKLFHSTDTKSVVCPICASMPWGDPNYRSANFREHIQRRHRFSYDTFVDYDVDEEDMMNQVLQRSIIDQ", "notes": "RNF114, human, RING-type E3 ubiquitin ligase; synthesised DNA cloned into pOPIN-B (N-terminal His-3C fusion); The methods describe no cleavage of the His-3C tag; also called WT RNF114; source: E. coli Rosetta, purified (Cobalt resin, gel filtration)"}, "B2": {"name": "RNF114 F206E (enzyme, human, UniProt Q9Y508 1-228, looked up)", "chain": "B1 chain with F206E", "notes": "RNF114, human, with a mutation in the linker between Di19 and UIM (modelled contact with the Ub I36 patch); Made by site-directed mutagenesis of pOPINB-RNF114 WT; no tag cleavage described; source: E. coli Rosetta, purified (Cobalt resin, gel filtration)"}, "B3": {"name": "RNF114 R198E (enzyme, human, UniProt Q9Y508 1-228, looked up)", "chain": "B1 chain with R198E", "notes": "Made by site-directed mutagenesis of pOPINB-RNF114 WT; no tag cleavage described; source: E. coli Rosetta, purified (Cobalt resin, gel filtration)"}, "B4": {"name": "AF1521 macrodomain (natural protein, UniProt O28751 1-192, looked up)", "chain": "MEVLFEAKVGDITLKLAQGDITQYPAKAIVNAANKRLEHGGGVAYAIAKACAGDAGLYTEISKKAMREQFGRDYIDHGEVVVTPAMNLEERGIKYVFHTVGPICSGMWSEELKEKLYKAFLGPLEKAEEMGVESIAFPAVSAGIYGCDLEKVVETFLEAVKNFKGSAVKEVALVIYDRKSAEVALKVFERSL", "notes": "plasmid GST-AF1521 (gift from M. Nielsen); also called GST-AF1521; source: purified as previously reported (Kamata et al, 2019)"}, "B5": {"name": "RNF114 M-UBD construct (residues 137–228) (domain or fragment)", "chain": "not shown", "notes": "RNF114, human, residues 137-228 (RING domain and associated disordered regions removed); No tag cleavage described; also called tandem Di19-UIM module; source: E. coli Rosetta, purified (Cobalt resin, gel filtration)"}, "B6": {"name": "RNF166 (enzyme, human, UniProt Q96A37 1-237, looked up)", "chain": "MAMFRSLVASAQQRQPPAGPAGGDSGLEAQYTCPICLEVYHRPVAIGSCGHTFCGECLQPCLQVPSPLCPLCRLPFDPKKVDKATHVEKQLSSYKAPCRGCNKKVTLAKMRVHISSCLKVQEQMANCPKFVPVVPTSQPIPSNIPNRSTFACPYCGARNLDQQELVKHCVESHRSDPNRVVCPICSAMPWGDPSYKSANFLQHLLHRHKFSYDTFVDYSIDEEAAFQAALALSLSEN", "notes": "RNF166, human, RING-type E3 ubiquitin ligase; synthesised DNA cloned into pOPIN-B (N-terminal His-3C fusion); No tag cleavage described; source: E. coli Rosetta, purified (Cobalt resin, gel filtration)"}, "B7": {"name": "RNF114 ΔUIM^ext (domain or fragment, human, UniProt Q9Y508 1-200, looked up)", "chain": "MAAQQRDCGGAAQLAGPAAEADPLGRFTCPVCLEVYEKPVQVPCGHVFCSACLQECLKPKKPVCGVCRSALAPGVRAVELERQIESTETSCHGCRKNFFLSKIRSHVATCSKYQNYIMEGVKATIKDASLQPRNVPNRYTFPCPYCPEKNFDQEGLVEHCKLFHSTDTKSVVCPICASMPWGDPNYRSANFREHIQRRHR", "notes": "RNF114, human, truncated version that ends immediately after the Di19 domain at residue 200; No tag cleavage described; source: E. coli Rosetta, purified (Cobalt resin, gel filtration)"}, "B8": {"name": "RNF138 (enzyme, human, UniProt Q8WVD3 1-245, looked up)", "chain": "MAEDLSAATSYTEDDFYCPVCQEVLKTPVRTTACQHVFCRKCFLTAMRESGAHCPLCRGNVTRRERACPERALDLENIMRKFSGSCRCCAKQIKFYRMRHHYKSCKKYQDEYGVSSIIPNFQISQDSVGNSNRSETSTSDNTETYQENTSSSGHPTFKCPLCQESNFTRQRLLDHCNSNHLFQIVPVTCPICVSLPWGDPSQITRNFVSHLNQRHQFDYGEFVNLQLDEETQYQTAVEESFQVNI", "notes": "RNF138, human, RING-type E3 ubiquitin ligase; synthesised DNA cloned into pOPIN-S3C (N-terminal His-SUMO-3C fusion); No tag cleavage described; source: E. coli Rosetta, purified (Cobalt resin, gel filtration; buffers at pH 8.0)"}}, "note": "Residue numbers refer to the chain shown, from its start. Names and notes keep the numbering of the source.", "data": [{"biological_target": "T1, Ub-Lys-TAMRA (UniProt P0CG47 1-76, Ub is isopeptide-linked to a TAMRA-labeled Lys-Gly dipeptide (at the Ub C-terminus))", "T1 construct": "ubiquitin (the cut product of the polyubiquitin precursor); source: generated previously (Geurink et al, 2012)", "experiment": "fluorescence polarisation; TAMRA-labelled substrate fixed, unlabelled protein at a range of concentrations, mixed 1:1; 22 °C; 25 mM HEPES pH 7.4, 150 mM NaCl, 0.1 mg/mL BSA, 1 mM TCEP; 10 µL in 384-well plate; Kd by nonlinear regression of duplicate datasets (GraphPad Prism 10)", "conditions": "both partners purified", "units": {"Kd": "µM"}, "values": [{"binder": "B1", "Kd": "~20"}, {"binder": "B2", "binding result": "binds"}, {"binder": "B3", "binding result": "binds"}, {"binder": "B4", "binding result": "binds"}, {"binder": "B5", "binding result": "binds"}]}, {"biological_target": "T2, Ub-ADPr-TAMRA (fluorescent ester-linked Ub-ADPr conjugate) (human, UniProt P0CG47 1-76, C-terminus ester-linked to ADP-ribose (OP-ADPr, compound 8) that carries TAMRA (CuAAC with TAMRA-azide))", "T2 construct": "ubiquitin, human (pET17b-Ub), wild type; observed mass of Ub 8564.4 Da; also called MARUbe probe; source: Ub purified as previously reported (Warren et al, 2023); coupled to OP-ADPr with DTX2, purified (Resource S), clicked to TAMRA-azide, purified (size exclusion)", "experiment": "fluorescence polarisation; TAMRA-labelled substrate fixed, unlabelled protein at a range of concentrations, mixed 1:1; 22 °C; 25 mM HEPES pH 7.4, 150 mM NaCl, 0.1 mg/mL BSA, 1 mM TCEP; 10 µL in 384-well plate; Kd by nonlinear regression of duplicate datasets (GraphPad Prism 10)", "conditions": "both partners purified", "units": {"Kd": "µM"}, "values": [{"binder": "B6", "binding result": "binds"}, {"binder": "B1", "Kd": 12.8}, {"binder": "B2", "binding result": "binds"}, {"binder": "B3", "binding result": "binds"}, {"binder": "B7", "binding result": "binds"}, {"binder": "B8", "binding result": "binds"}, {"binder": "B4", "binding result": "binds"}]}]}
